T1: TUCAN (Tumor Up-regulated CARD-containing Antagonist of Caspase Nine), full-length (Homo sapiens (Human), UniProt Q9Y2G2 131-537)
T1 construct: Full-length TUCAN expressed by transient transfection in HEK293T cells; also called full-length TUCAN; CARD-X
T1 sequence: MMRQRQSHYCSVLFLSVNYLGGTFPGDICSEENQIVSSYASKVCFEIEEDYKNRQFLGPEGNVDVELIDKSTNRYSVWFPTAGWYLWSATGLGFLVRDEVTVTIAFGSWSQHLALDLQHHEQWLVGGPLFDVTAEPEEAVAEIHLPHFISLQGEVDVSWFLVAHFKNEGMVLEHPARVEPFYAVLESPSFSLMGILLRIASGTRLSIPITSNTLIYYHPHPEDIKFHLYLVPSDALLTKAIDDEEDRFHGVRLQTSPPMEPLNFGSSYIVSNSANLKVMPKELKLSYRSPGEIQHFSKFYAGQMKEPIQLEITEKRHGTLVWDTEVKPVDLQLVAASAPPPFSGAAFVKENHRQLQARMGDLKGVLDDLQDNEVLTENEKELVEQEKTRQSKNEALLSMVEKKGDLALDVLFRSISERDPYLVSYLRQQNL

B1: TUCAN fragment lacking the CARD (residues 1-337) (other)
chain: MMRQRQSHYCSVLFLSVNYLGGTFPGDICSEENQIVSSYASKVCFEIEEDYKNRQFLGPEGNVDVELIDKSTNRYSVWFPTAGWYLWSATGLGFLVRDEVTVTIAFGSWSQHLALDLQHHEQWLVGGPLFDVTAEPEEAVAEIHLPHFISLQGEVDVSWFLVAHFKNEGMVLEHPARVEPFYAVLESPSFSLMGILLRIASGTRLSIPITSNTLIYYHPHPEDIKFHLYLVPSDALLTKAIDDEEDRFHGVRLQTSPPMEPLNFGSSYIVSNSANLKVMPKELKLSYRSPGEIQHFSKFYAGQMKEPIQLEITEKRHGTLVWDTEVKPVDLQLVAAS
notes: also called ΔCARD; ΔCARD fragment of TUCAN

How the values were obtained:
[1] = target: T1, TUCAN (Tumor Up-regulated …); assay: co-immunoprecipitation, transfected HEK293T cells, SDS-PAGE/immunoblot
Method: (§1) The TUCAN polypeptides were expressed by transient transfection in HEK293T cells together with epitope-tagged pro-caspase-9 or other proteins. […] Cell lysates were prepared from transfected cells and immunoprecipitations were performed using anti-Flag or anti-Myc antibodies, followed by SDS-PAGE/immunoblot analysis.

[2] = target: T1, TUCAN (Tumor Up-regulated …); assay: co-immunoprecipitation with HA- and Myc-tagged proteins
Method: as §1
(§2) To determine the role of the CARD domain within TUCAN for interactions with pro-Caspase-9, fragments of TUCAN were expressed. […] Self-association of TUCAN was also confirmed by co-immunoprecipitation experiments, using HA and Myc-tagged proteins and contrasting the full-length, CARD-only, and ΔCARD proteins.

[3] = target: B1; assay: co-immunoprecipitation, transfected cells, SDS-PAGE/immunoblot
Method: as §1, §2

Binder | binding result [1] | other results
pro-Caspase-1 (enzyme, UniProt P29466 1-404, looked up) MADKVLKEKRKLFIRSMGEGTINGLLDELLQTRVLNKEEMEKVKRENATVMDKTRALIDSVIPKGAQACQICITYICEEDSYLAGTLGLSADQTSGNYLNMQDSQGVLSSFPAPQAVQDNPAMPTSSGSEGNVKLCSLEEAQRIWKQKSAEIYPIMDKSSRTRLALIICNEEFDSIPRRTGAEVDITGMTMLLQNLGYSVDVKKNLTASDMTTELEAFAHRPEHKTSDSTFLVFMSHGIREGICGKKHSEQVPDILQLNAIFNMLNTKNCPSLKDKPKVIIIQACRGDSPGVVWFKDSVGVSGNLSLPTTEEFEDDAIKKAHIEKDFIAFCSSTPDNVSWRHPTMGSVFIGRLIEHMQEYACSCDVEEIFRKVRFSFEQPDGRAQMPTTERVTLTRCFYLFPGH | no binding | 
B1 |  | binding result [2]: no binding
Bcl10 (CIPER; huE10) (other, UniProt O95999 1-233, looked up) MEPTAPSLTEEDLTEVKKDALENLRVYLCEKIIAERHFDHLRAKKILSREDTEEISCRTSSRKRAGKLLDYLQENPKGLDTLVESIRREKTQNFLIQKITDEVLKLRNIKLEHLKGLKCSSCEPFPDGATNNLSRSNSDESNFSEKLRASTVMYHPEGESSTTPFFSTNSSLNLPVLEVGRTENTIFSSTTLPRPGDPGAPPLPPDLQLEEEGTCANSSEMFLPLRSRTVSRQ | no binding | 
pro-caspase-9 inactive mutant (Cys287/Ala) (enzyme) MDEADRRLLRRCRLRLVEELQVDQLWDALLSSELFRPHMIEDIQRAGSGSRRDQARQLIIDLETRGSQALPLFISCLEDTGQDMLASFLRTNRQAAKLSKPTLENLTPVVLRPEIRKPEVLRPETPRPVDIGSGGFGDVGALESLRGNADLAYILSMEPCGHCLIINNVNFCRESGLRTRTGSNIDCEKLRRRFSSPHFMVEVKGDLTAKKMVLALLELAQQDHGALDCCVVVILSHGCQASHLQFPGAVYGTDGCPVSVEKIVNIFNGTSCPSLGGKPKLFFIQAAGGEQKDHGFEVASTSPEDESPGSNPEPDATPFQEGLRTFDQLDAISSLPTPSDIFVSYSTFPGFVSWRDPKSGSWYVETLDDIFEQWAHSEDLQSLLLRVANAVSVKGIYKQMPGCFNFLRKKLFFKTS |  | binding result [3]: no binding

Source: patent publication US20030165887A1 (BURNHAM INSTITUTE, published 2003)
